# Patent publication US20200297862A1 (Zymeworks, published 2020)
# B1: Variant 10014 (antibody, name in Kabat numbering, V domains shown)
# VH: EVQLVESGGGLVQPGGSLRLSCAASGFTFADYTMDWVRQAPGKGLEWVADVNPNSGGSIYNQRFKGRFTLSVDRSKNTLYLQMNSLRAEDTAVYYCARNLGPSFYFDYWGQGTLVTVSS
# VL: DIQMTQSPSSLSASVGDRVTITCKASQDVSIGVAWYQQKPGKAPKLLIYSASYRYTGVPSRFSGSGSGTDFTLTISSLQPEDFATYYCQQYYIYPATFGQGTKVEIK
# notes: also called v10014; OAA variant
# Key:
# [1] = target: T1, Recombinant human HER2 (human, UniProt P04626 23-652); test: SPR as in Example 12, one-armed antibody, post-SEC, against v10013
# T1 construct: extracellular domain
# [2] = target: T1, Recombinant human HER2; test: SPR as in Example 12, one-armed antibody, pre-SEC, against v10013
binder,measurement,setting,value
B1,Fold wrt WT (KD(WT)/KD(mut)),[1],7 fold
same,Fold wrt WT (KD(WT)/KD(mut)),[2],8.1 fold
